Among the targets are HLA-B*15:01; HLA-B*58:01; HLA-B*27:05; HLA-B*51:01; HLA-A*31:01; HLA-B*35:01; HLA-B*07:02.
Experiment in all cases: IEDB peptide-MHC binding, purified MHC/direct/fluorescence; filed as Kd, often an IC50 or EC50 that approximates it; ≥ and ≤ were set here for values at or beyond the usual limits of such assays
Another test has as its target HLA-B*39:01. The following applies: source organism: Yellow fever virus.
For another test, the target named is HLA-B*40:01. The settings on record: source organism: Yellow fever virus.
Another test concerns the target HLA-A*01:01. The following applies: source organism: dengue virus type 2.
Another test concerns the target HLA-A*03:01. The following applies: source organism: Yellow fever virus.
Where [1] appears, read: source organism: Yellow fever virus.
[2] abbreviates: source organism: dengue virus type 4.
Where [3] appears, read: source organism: dengue virus type 1.
Setting [4] is: source organism: dengue virus type 2.
Where [5] appears, read: source organism: dengue virus type 3.

pKd: −log10 of the molar value.

From the Immune Epitope Database (IEDB) come the findings set out here.

Regarding AQAVMEMTY, the pKd with HLA-B*15:01 (setting [1]) is 7.25.
Consider AQEDDQYVF, for which the pKd with HLA-B*15:01 (setting [2]) was 7.09.
In turn, CRTAFKPVL gave a pKd in the test with HLA-B*39:01 of 5.69.
Turning to ERWFVRNPF, the pKd with HLA-B*39:01 was at most 4.70.
Take ESWIVDRQW: the pKd in the test with HLA-B*58:01 (setting [1]) was 6.91.
As to FHERGYVKL, in the test with HLA-B*39:01, the pKd is 7.46.
In the test with HLA-B*39:01, FHKRDMRLL showed a pKd of at most 4.70.
On to FRKGSSIGK, for which the pKd with HLA-B*27:05 (setting [2]) was 7.28.
For FTMRLLSPV, the negative logarithm of the Kd (pKd) with HLA-B*51:01 (setting [3]) was at most 4.70.
As for GEAMDTISV, the pKd is at most 4.70 in the test with HLA-B*39:01 and at least 9.00 with HLA-B*40:01.
On to GMGEAAAIF, for which, in the test with HLA-B*15:01 (setting [3]), the pKd was 7.54.
In turn, GMMGGLWKY had a pKd with HLA-B*15:01 (setting [1]) of 7.49.
Sequence ICSAVPSHW had a negative-log Kd (pKd) with HLA-B*58:01 (setting [4]) of 6.40.
Take ICSAVPVHW: the pKd in the test with HLA-B*58:01 (setting [5]) is 7.12.
IQYVIRAQL had a pKd with HLA-B*39:01 of 6.17.
As for ISYIMLIFF, the pKd in the test with HLA-B*58:01 (setting [1]) was 5.98.
As for ITAAAWYLW, the pKd in the test with HLA-B*58:01 (setting [4]) was 7.34.
The sequence ITAHLKRLW showed a pKd with HLA-B*58:01 (setting [1]) of 7.34.
KAYAQMWSL gave a pKd with HLA-B*58:01 (setting [2]) of 8.00.
The sequence KIMKVVNRW had a pKd with HLA-B*58:01 (setting [1]) of 7.43.
KLEGKIVQY had a pKd with HLA-B*15:01 (setting [3]) of 6.90.
In the test with HLA-B*15:01 (setting [4]), KLQLKGMSY showed a pKd of 6.95.
Take KQIANELNY: the pKd in the test with HLA-B*15:01 (setting [5]) was 6.95.
For KQLGQVMLL, the negative logarithm of the Kd (pKd) with HLA-B*27:05 (setting [2]) is 6.89.
KRAAAGIMK had a pKd with HLA-B*27:05 (setting [4]) of 7.12.
On to KRVVASLMR, for which the pKd in the test with HLA-B*27:05 (setting [1]) is 6.97.
Consider KSAHGSPTF, for which the negative-log Kd (pKd) with HLA-B*58:01 (setting [1]) is 7.44.
KTNDRKWCF: in the test with HLA-B*58:01 (setting [1]), the pKd is 7.24.
For the sequence KTWAYHGSY, the pKd with HLA-A*01:01 and with HLA-A*31:01 (setting [4]) was at most 4.70 throughout.
KTWGKNLVF: in the test with HLA-B*58:01 (setting [1]), the negative-log Kd (pKd) was 7.72.
For LAVMGDAAW, the pKd with HLA-B*35:01 (setting [1]) is at least 9.00; with HLA-B*58:01 (setting [1]), 8.52.
Take LTLKGTSYK: the pKd in the test with HLA-A*03:01 was 6.98; with HLA-A*31:01 (setting [1]) it was 6.29.
Take MPRSIGGPV: the pKd was 8.30 in the test with HLA-B*07:02 (setting [1]) and 6.07 with HLA-B*51:01 (setting [1]).
As for MVIFFMSPK, the pKd is 6.21 in the test with HLA-A*03:01 and 5.86 with HLA-A*31:01 (setting [1]).
For PHAATIRVL, the pKd with HLA-B*39:01 was 6.02.
In the case of RADEINAIL, the pKd with HLA-B*39:01 was 6.81.
In the test with HLA-B*27:05 (setting [3]), RKHGGMLVR showed a pKd of 6.46.
In the case of RMGERQLQK, the values for the pKd with HLA-A*03:01 and with HLA-A*31:01 (setting [1]) were 6.47 and 6.73, respectively.
Consider RQLQKIERW, for which the pKd with HLA-B*58:01 (setting [1]) was 7.17.
As for RRDKRSVAL, the pKd with HLA-B*27:05 (setting [3]) is 7.28.
RREKRSVAL gave a pKd in the test with HLA-B*27:05 (setting [2]) of 6.40.
RTWAYHGSY: the pKd in the test with HLA-A*31:01 (setting [2]) is 7.43; in the test with HLA-B*15:01 (setting [2]), 7.92.
RTWHYCGSY: the pKd with HLA-B*15:01 (setting [1]) was 7.17.
Still for that read-out and setting: then SIQDNQVAY, with 6.66.
In the test with HLA-B*07:02 (setting [4]), SPSKLASAI showed a pKd of 7.92.
In the case of SQEAEFTGY, the pKd in the test with HLA-B*15:01 (setting [1]) is 7.03.
SQHNYRPGY: the negative-log Kd (pKd) with HLA-B*15:01 (setting [3]) is 7.66.
In turn, SRLLMRRMR gave a pKd in the test with HLA-B*27:05 (setting [1]) of 6.53.
Sequence SRLTYQWHK had a pKd with HLA-B*27:05 (setting [1]) of 7.80.
In the test with HLA-B*39:01, SSARYDVAL gave a pKd of 6.42.
With STMPLVMAW, in the test with HLA-B*58:01 (setting [2]), the pKd is 8.52.
In the test with HLA-B*07:02 (setting [1]), SVAMCRTPF showed a pKd of 6.54.
TKDTNDNNL had a pKd with HLA-B*39:01 of 6.87.
In turn, TLYAVATTF gave a pKd with HLA-B*15:01 (setting [4]) of 6.88.
Turning to VLIEVNPPF, the pKd with HLA-B*15:01 (setting [1]) is 7.16; with HLA-B*35:01 (setting [1]), 7.41.
In the test with HLA-B*39:01, VRGGMVAPL gave a negative-log Kd (pKd) of 5.27.
The sequence VSGKLIHEW showed a negative logarithm of the Kd (pKd) with HLA-B*58:01 (setting [5]) of 7.49.
In the test with HLA-B*27:05 (setting [2]), WRTIMAVLF had a pKd of 6.63.
Regarding YLAGAGLAF, the pKd with HLA-B*15:01 (setting [3]) was 7.96; with HLA-B*35:01 (setting [3]), 8.40.
With YRLRGEARK, the negative logarithm of the Kd (pKd) with HLA-B*27:05 (setting [3]) is 7.07.
In the test with HLA-B*27:05 (setting [1]), YRNALSMMP had a pKd of at most 4.70.
